This note sets out measurements from publication PMC2270275, “Thermal dependency of RAG1 self-association properties” (BMC Biochemistry, 2008).

This data set concerns the molecule itself. Put plainly: SEC-MALS; MALLS-SEC of purified GST-core RAG2 (0.01-0.03 mg), kept at 4°C before SEC; Superdex 200; 25 mM Tris pH 8.0, 150 mM KCl, 2 mM dithiothreitol; 40-200 nM in Peak 2. A general note: SEC sorts molecules by how far they enter the pores of the column.

B1: GST-core RAG2 (domain or fragment, UniProt P21784 1-387, looked up)
chain: MSLQMVTVGHNIALIQPGFSLMNFDGQVFFFGQKGWPKRSCPTGVFHFDIKQNHLKLKPAIFSKDSCYLPPLRYPATCSYKGSIDSDKHQYIIHGGKTPNNELSDKIYIMSVACKNNKKVTFRCTEKDLVGDVPEPRYGHSIDVVYSRGKSMGVLFGGRSYMPSTQRTTEKWNSVADCLPHVFLIDFEFGCATSYILPELQDGLSFHVSIARNDTVYILGGHSLASNIRPANLYRIRVDLPLGTPAVNCTVLPGGISVSSAILTQTNNDEFVIVGGYQLENQKRMVCSLVSLGDNTIEISEMETPDWTSDIKHSKIWFGSNMGNGTIFLGIPGDNKQAMSEAFYFYTLRCSEEDLSEDQKIVSNSQTSTEDPGDSTPFEDSEEFCFS
notes: RAG2 core region; core RAG2 portion printed as 42.6 kDa; Predicted monomer mass 68.9 kDa; The authors put the dimeric state down to the GST moiety, which is known to dimerize; also called core RAG2 fused to glutathione S-transferase; GST-RAG2
Turning to B1, the “stoichiometry N” value worked out at 2.

The term stoichiometry N denotes the number of molecules, sites or subunits per partner or assembly.
